Source: PMC10992996
Changes are numbered by the printed parent chain. In names and notes the source's numbering stands.

B1: Human canonical CRB1 (Crumbs homolog 1), P82279 p.C681Y (protein)
chain: FCNKNNTRCLSNSCQNNSTCKDFSKDNDCSCSDTANNLDKDCDNMKDPCFSNPCQGSATCVNTPGERSFLCKCPPGYSGTICETTIGSCGKNSCQHGGICHQDPIYPVCICPAGYAGRFCEIDHDECASSPCQNGAVCQDGIDGYSCFCVPGYQGRHCDLEVDECASDPCKNEATCLNEIGRYTCICPHNYSGVNCELEIDECWSQPCLNGATCQDALGAYFCDCAPGFLGDHCELNTDECASQPCLHGGLCVDGENRYSCNCTGSGFTGTHCETLMPLCWSKPCHNNATCEDSVDNYTCHCWPGYTGAQCEIDLNECNSNPCQSNGECVELSSEKQYGRITGLPSSFSYHEASGYVCICQPGFTGIHCEEDVNECSSNPCQNGGTCENLPGNYTCHCPFDNLSRTFYGGRDCSDILLGCTHQQCLNNGTCIPHFQDGQHGFSCLCPSGYTGSLCEIATTLSFEGDGFLWVKSGSVTTKGSVCNIALRFQTVQPMALLLFRSNRDVFVKLELLSGYIHLSIQVNNQSKVLLFISHNTSDGEWHFVEVIFAEAVTLTLIDDSCKEKCIAKAPTPLESDQSICAFQNSFLGGLPVGMTSNGVALLNFYNMPSTPSFVGCLQDIKIDWNHITLENISSGSSLNVKAGCVRKDWCESQPYQSRGRCINLWLSYQCDCHRPYEGPNCLREYVAGRFGQDDSTGYVIFTLDESYGDTISLSMFVRTLQPSGLLLALENSTYQYIRVWLERGRLAMLTPNSPKLVVKFVLNDGNVHLISLKIKPYKIELYQSSQNLGFISASTWKIEKGDVIYIGGLPDKQETELNGGFFKGCIQDVRLNNQNLEFFPNPTNNASLNPVLVNVTQGCAGDNSCKSNPCHNGGVCHSRWDDFSCSCPALTSGKACEEVQWCGFSPCPHGAQCQPVLQGFECIANAVFNGQSGQILFRSNGNITRELTNITFGFRTRDANVIILHAEKEPEFLNISIQDSRLFFQLQSGNSFYMLSLTSLQSVNDGTWHEVTLSMTDPLSQTSRWQMEVDNETPFVTSTIATGSLNFLKDNTDIYVGDRAIDNIKGLQGCLSTIEIGGIYLSYFENVHGFINKPQEEQFLKISTNSVVTGCLQLNVCNSNPCLHGGNCEDIYSSYHCSCPLGWSGKHCELNIDECFSNPCIHGNCSDRVAAYHCTCEPGYTGVNCEVDIDNCQSHQCANGATCISHTNGYSCLCFGNFTGKFCRQSRLPSTVCGNEKTNLTCYNGGNCTEFQTELKCMCRPGFTGEWCEKDIDECASDPCVNGGLCQDLLNKFQCLCDVAFAGERCEVDLADDLISDIFTTIGSVTVALLLILLLAIVASVVTSNKRATQGTYSPSRQEKEGSRVEMWNLMPPPAMERLI
B2: Human canonical CRB1 (Crumbs homolog 1), P82279 p.C1321S (protein)
chain: B1 chain with Y656C, C1296S
B3: Human canonical CRB1 (Crumbs homolog 1), P82279 p.C948Y (protein)
chain: B1 chain with Y656C, C923Y

The binders below were run against Human canonical CRB2 (Crumbs homolog 2), Q5IJ48-1 (assay: co-IP (FLAG-IP) and Western blot quantification). Conditions: chain shown with the change; co-transfected in HEK293T cells; three biological replicates; parent: est. 1.0; read off a plot.
Human canonical CRB2 (Crumbs homolog 2), Q5IJ48-1, sequence (Q5IJ48 29-1285): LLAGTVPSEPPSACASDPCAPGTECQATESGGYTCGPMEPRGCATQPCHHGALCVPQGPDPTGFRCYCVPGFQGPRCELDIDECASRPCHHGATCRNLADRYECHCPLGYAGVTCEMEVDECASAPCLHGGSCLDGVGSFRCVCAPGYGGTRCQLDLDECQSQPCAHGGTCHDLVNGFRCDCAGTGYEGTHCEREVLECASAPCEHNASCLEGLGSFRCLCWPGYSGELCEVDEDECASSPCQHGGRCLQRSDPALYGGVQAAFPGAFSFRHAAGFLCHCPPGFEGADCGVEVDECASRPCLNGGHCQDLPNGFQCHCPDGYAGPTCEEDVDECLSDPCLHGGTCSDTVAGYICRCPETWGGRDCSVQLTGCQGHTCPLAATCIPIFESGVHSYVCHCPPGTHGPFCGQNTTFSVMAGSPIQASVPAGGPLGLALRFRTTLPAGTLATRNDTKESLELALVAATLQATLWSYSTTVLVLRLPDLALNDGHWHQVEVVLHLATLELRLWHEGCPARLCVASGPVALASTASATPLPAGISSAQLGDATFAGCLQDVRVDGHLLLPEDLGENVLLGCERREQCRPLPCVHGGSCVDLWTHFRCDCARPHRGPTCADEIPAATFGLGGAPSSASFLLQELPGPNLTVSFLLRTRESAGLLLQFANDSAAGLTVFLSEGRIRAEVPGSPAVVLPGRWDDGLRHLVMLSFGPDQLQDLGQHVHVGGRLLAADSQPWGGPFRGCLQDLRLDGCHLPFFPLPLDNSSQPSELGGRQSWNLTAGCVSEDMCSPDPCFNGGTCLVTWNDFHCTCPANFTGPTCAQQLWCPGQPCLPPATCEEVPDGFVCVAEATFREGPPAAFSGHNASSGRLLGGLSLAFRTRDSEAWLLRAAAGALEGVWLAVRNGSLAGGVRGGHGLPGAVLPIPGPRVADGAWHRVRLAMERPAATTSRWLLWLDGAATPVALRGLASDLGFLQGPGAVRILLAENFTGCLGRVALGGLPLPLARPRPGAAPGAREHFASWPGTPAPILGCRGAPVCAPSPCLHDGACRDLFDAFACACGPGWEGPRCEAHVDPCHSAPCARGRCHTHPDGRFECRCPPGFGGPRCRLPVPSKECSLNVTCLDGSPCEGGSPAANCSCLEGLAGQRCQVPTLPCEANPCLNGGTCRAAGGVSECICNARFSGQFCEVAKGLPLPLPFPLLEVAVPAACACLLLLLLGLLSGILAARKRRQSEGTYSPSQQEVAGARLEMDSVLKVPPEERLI

ratio to parent | Binder
1.1 | B1
1 | B2
1 | B3
